# Results published in the supplement of paper PMC5998384.
# Tests used:
# [1] = test system: HeLa Kyoto; assay: solubility in G1/S (NP-40 vs SDS abundance) (log2 ratio); higher = more soluble; details: cell cycle stage: G1/S
# [2] = test system: HeLa Kyoto; assay: melting temperature (median over replicates), in situ; higher = more thermally stable
# [3] = test system: HeLa Kyoto; assay: solubility change mitosis vs G1/S (difference of NP-40 vs SDS log2 ratios) (log2 ratio difference); higher = more soluble in mitosis
# [4] = test system: HeLa Kyoto; assay: thermal stability score vs G1/S (z-score of summed log2 fold changes over temperatures); higher = more thermally stable than in G1/S
# [5] = cell cycle stage: early G1 (4.5 h after nocodazole release)
# 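Wherever melting temperature (median over replicates), in situ is given: HeLa Kyoto cells synchronized by double thymidine or nocodazole block, proteins quantified by TMT10plex mass spectrometry, three independent biological replicates.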
# 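Wherever solubility change mitosis vs G1/S (difference of NP-40 vs SDS log2 ratios) is given: synchronized HeLa Kyoto cells (double thymidine block for G1/S, nocodazole release for mitosis), protein amounts in NP-40 versus SDS lysates quantified by mass spectrometry, three biological replicates.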
# 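Wherever solubility in G1/S (NP-40 vs SDS abundance) is given: HeLa Kyoto cells arrested at G1/S by double thymidine block, proteins quantified by TMT10plex mass spectrometry in mild NP-40 versus SDS extracts, three biological replicates.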
# 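Wherever thermal stability score vs G1/S (z-score of summed log2 fold changes over temperatures) is given: synchronized HeLa Kyoto cells, proteins quantified by TMT10plex mass spectrometry, three biological replicates, mitosis taken 0.5 h after nocodazole release, G1/S directly after double thymidine block.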
Sequence,solubility in G1/S (log2) [1],melting temperature ([2]; cell cycle stage: G1/S) [°C],melting temperature ([2]; cell cycle stage: mitosis) [°C],solubility change mitosis (log2) [3],"thermal stability score [4, 5]",thermal stability score ([4]; cell cycle stage: mitosis)
METPAAAAPAGSLFPSFLLLACGTLVAALLGAAHRLGLFYQLLHKVDKASVRHGGENVAAVLRAHGVRFIFTLVGGHISPLLVACEKLGIRVVDTRHEVTAVFAADAMARLSGTVGVAAVTAGPGLTNTVTAVKNAQMAQSPILLLGGAASTLLQNRGALQAVDQLSLFRPLCKFCVSVRRVRDIVPTLRAAMAAAQSGTPGPVFVELPVDVLYPYFMVQKEMVPAKPPKGLVGRVVSWYLENYLANLFAGAWEPQPEGPLPLDIPQASPQQVQRCVEILSRAKRPLMVLGSQALLTPTSADKLRAAVETLGVPCFLGGMARGLLGRNHPLHIRENRSAALKKADVIVLAGTVCDFRLSYGRVLSHSSKIIIVNRNREEMLLNSDIFWKPQEAVQGDVGSFVLKLVEGLQGQTWAPDWVEELREADRQKEQTFREKAAMPVAQHLNPVQVLQLVEETLPDNSILVVDGGDFVGTAAHLVQPRGPLRWLDPGAFGTLGVGAGFALGAKLCRPDAEVWCLFGDGAFGYSLIEFDTFVRHKIPVMALVGNDAGWTQISREQVPSLGSNVACGLAYTDYHKAAMGLGARGLLLSRENEDQVVKVLHDAQQQCRDGHPVVVNILIGRTDFRDGSIAV [ILVBL],-0.101,53.2,53.7,-0.172,0.852,-0.0354
MAEQEPTAEQLAQIAAENEEDEHSVNYKPPAQKSIQEIQELDKDDESLRKYKEALLGRVAVSADPNVPNVVVTGLTLVCSSAPGPLELDLTGDLESFKKQSFVLKEGVEYRIKISFRVNREIVSGMKYIQHTYRKGVKIDKTDYMVGSYGPRAEEYEFLTPVEEAPKGMLARGSYSIKSRFTDDDKTDHLSWEWNLTIKKDWKD [ARHGDIA],0.25,51.5,51.7,-0.109,0.408,-2.01
MVGYDPKPDGRNNTKFQVAVAGSVSGLVTRALISPFDVIKIRFQLQHERLSRSDPSAKYHGILQASRQILQEEGPTAFWKGHVPAQILSIGYGAVQFLSFEMLTELVHRGSVYDAREFSVHFVCGGLAACMATLTVHPVDVLRTRFAAQGEPKVYNTLRHAVGTMYRSEGPQVFYKGLAPTLIAIFPYAGLQFSCYSSLKHLYKWAIPAEGKKNENLQNLLCGSGAGVISKTLTYPLDLFKKRLQVGGFEHARAAFGQVRRYKGLMDCAKQVLQKEGALGFFKGLSPSLLKAALSTGFMFFSYEFFCNVFHCMNRTASQR [SLC25A19],-0.155,56.4,55.6,-0.0971,-0.746,-1.27
MADQPKPISPLKNLLAGGFGGVCLVFVGHPLDTVKVRLQTQPPSLPGQPPMYSGTFDCFRKTLFREGITGLYRGMAAPIIGVTPMFAVCFFGFGLGKKLQQKHPEDVLSYPQLFAAGMLSGVFTTGIMTPGERIKCLLQIQASSGESKYTGTLDCAKKLYQEFGIRGIYKGTVLTLMRDVPASGMYFMTYEWLKNIFTPEGKRVSELSAPRILVAGGIAGIFNWAVAIPPDVLKSRFQTAPPGKYPNGFRDVLRELIRDEGVTSLYKGFNAVMIRAFPANAACFLGFEVAMKFLNWATPNL [SLC25A20],-0.0167,58,56.7,-0.108,-1.89,-0.401
MADLAECNIKVMCRFRPLNESEVNRGDKYIAKFQGEDTVVIASKPYAFDRVFQSSTSQEQVYNDCAKKIVKDVLEGYNGTIFAYGQTSSGKTHTMEGKLHDPEGMGIIPRIVQDIFNYIYSMDENLEFHIKVSYFEIYLDKIRDLLDVSKTNLSVHEDKNRVPYVKGCTERFVCSPDEVMDTIDEGKSNRHVAVTNMNEHSSRSHSIFLINVKQENTQTEQKLSGKLYLVDLAGSEKVSKTGAEGAVLDEAKNINKSLSALGNVISALAEGSTYVPYRDSKMTRILQDSLGGNCRTTIVICCSPSSYNESETKSTLLFGQRAKTIKNTVCVNVELTAEQWKKKYEKEKEKNKILRNTIQWLENELNRWRNGETVPIDEQFDKEKANLEAFTVDKDITLTNDKPATAIGVIGNFTDAERRKCEEEIAKLYKQLDDKDEEINQQSQLVEKLKTQMLDQEELLASTRRDQDNMQAELNRLQAENDASKEEVKEVLQALEELAVNYDQKSQEVEDKTKEYELLSDELNQKSATLASIDAELQKLKEMTNHQKKRAAEMMASLLKDLAEIGIAVGNNDVKQPEGTGMIDEEFTVARLYISKMKSEVKTMVKRCKQLESTQTESNKKMEENEKELAACQLRISQHEAKIKSLTEYLQNVEQKKRQLEESVDALSEELVQLRAQEKVHEMEKEHLNKVQTANEVKQAVEQQIQSHRETHQKQISSLRDEVEAKAKLITDLQDQNQKMMLEQERLRVEHEKLKATDQEKSRKLHELTVMQDRREQARQDLKGLEETVAKELQTLHNLRKLFVQDLATRVKKSAEIDSDDTGGSAAQKQKISFLENNLEQLTKVHKQLVRDNADLRCELPKLEKRLRATAERVKALESALKEAKENASRDRKRYQQEVDRIKEAVRSKNMARRGHSAQIAKPIRPGQHPAASPTHPSAIRGGGAFVQNSQPVAVRGGGGKQV [KIF5B],0.108,51.5,51.5,-0.0355,1.12,0.152
MNAGPGCEPCTKRPRWGAATTSPAASDARSFPSRQRRVLDPKDAHVQFRVPPSSPACVPGRAGQHRGSATSLVFKQKTITSWMDTKGIKTAESESLDSKENNNTRIESMMSSVQKDNFYQHNVEKLENVSQLSLDKSPTEKSTQYLNQHQTAAMCKWQNEGKHTEQLLESEPQTVTLVPEQFSNANIDRSPQNDDHSDTDSEENRDNQQFLTTVKLANAKQTTEDEQAREAKSHQKCSKSCDPGEDCASCQQDEIDVVPESPLSDVGSEDVGTGPKNDNKLTRQESCLGNSPPFEKESEPESPMDVDNSKNSCQDSEADEETSPGFDEQEDGSSSQTANKPSRFQARDADIEFRKRYSTKGGEVRLHFQFEGGESRTGMNDLNAKLPGNISSLNVECRNSKQHGKKDSKITDHFMRLPKAEDRRKEQWETKHQRTERKIPKYVPPHLSPDKKWLGTPIEEMRRMPRCGIRLPLLRPSANHTVTIRVDLLRAGEVPKPFPTHYKDLWDNKHVKMPCSEQNLYPVEDENGERTAGSRWELIQTALLNKFTRPQNLKDAILKYNVAYSKKWDFTALIDFWDKVLEEAEAQHLYQSILPDMVKIALCLPNICTQPIPLLKQKMNHSITMSQEQIASLLANAFFCTFPRRNAKMKSEYSSYPDINFNRLFEGRSSRKPEKLKTLFCYFRRVTEKKPTGLVTFTRQSLEDFPEWERCEKPLTRLHVTYEGTIEENGQGMLQVDFANRFVGGGVTSAGLVQEEIRFLINPELIISRLFTEVLDHNECLIITGTEQYSEYTGYAETYRWSRSHEDGSERDDWQRRCTEIVAIDALHFRRYLDQFVPEKMRRELNKAYCGFLRPGVSSENLSAVATGNWGCGAFGGDARLKALIQILAAAAAERDVVYFTFGDSELMRDIYSMHIFLTERKLTVGDVYKLLLRYYNEECRNCSTPGPDIKLYPFIYHAVESCAETADHSGQRTGT [PARG],-0.159,50.8,50,-0.0937,-0.493,-0.304
MKLLTHNLLSSHVRGVGSRGFPLRLQATEVRICPVEFNPNFVARMIPKVEWSAFLEAADNLRLIQVPKGPVEGYEENEEFLRTMHHLLLEVEVIEGTLQCPESGRMFPISRGIPNMLLSEEETES [TRMT112],0.323,51.5,51.4,0.201,-4.68,-1.02
MAAAAGRSLLLLLSSRGGGGGGAGGCGALTAGCFPGLGVSRHRQQQHHRTVHQRIASWQNLGAVYCSTVVPSDDVTVVYQNGLPVISVRLPSRRERCQFTLKPISDSVGVFLRQLQEEDRGIDRVAIYSPDGVRVAASTGIDLLLLDDFKLVINDLTYHVRPPKRDLLSHENAATLNDVKTLVQQLYTTLCIEQHQLNKERELIERLEDLKEQLAPLEKVRIEISRKAEKRTTLVLWGGLAYMATQFGILARLTWWEYSWDIMEPVTYFITYGSAMAMYAYFVMTRQEYVYPEARDRQYLLFFHKGAKKSRFDLEKYNQLKDAIAQAEMDLKRLRDPLQVHLPLRQIGEKD [MCU],0.00831,53,52.9,-0.0872,0.0563,-1.45
